From patent publication US20130217572A1, “SPECIFIC DELIVERY OF AGROCHEMICALS” (VRIJE UNIVERSITEIT BRUSSEL, priority 2010, published 2013) come the findings set out here.

For data set [1], the target named is T1, potato lectin (Sigma) (potato, UniProt Q9S8M0 23-323).
T1 construct: Bought glycoprotein, coated on ELISA plates
T1 sequence (looked up): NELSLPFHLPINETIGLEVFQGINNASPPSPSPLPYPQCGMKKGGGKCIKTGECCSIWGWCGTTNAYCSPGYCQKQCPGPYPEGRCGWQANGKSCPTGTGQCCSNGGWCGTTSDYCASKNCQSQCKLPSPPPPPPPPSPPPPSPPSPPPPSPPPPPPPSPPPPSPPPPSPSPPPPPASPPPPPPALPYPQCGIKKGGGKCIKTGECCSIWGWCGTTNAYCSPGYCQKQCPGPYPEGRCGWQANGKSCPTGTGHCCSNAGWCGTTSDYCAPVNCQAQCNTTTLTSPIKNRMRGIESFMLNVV
Nature of the data set: microcapsule retention; L: amine capsules, BS3 two-step, 0.1 ug VHH/cm2; potato lectin coat 100 ug/ml; 100% coverage.

The target of data set [2] is T1, potato lectin (Sigma). Nature of the data set: microcapsule retention; K: amine capsules, BS3 two-step, 1 ug VHH/cm2; potato lectin coat 100 ug/ml; 10% coverage.
For data set [3], the target named is T1, potato lectin (Sigma). Nature of the data set: microcapsule retention; H: amine capsules, BS3 one-step, 0.1 ug VHH/cm2; potato lectin coat 10 ug/ml; 100% coverage.
Data set [4] addresses T1, potato lectin (Sigma). Nature of the data set: microcapsule retention; D: carboxyl capsules, EDC/Sulfo-NHS, 0.1 ug VHH/cm2; potato lectin coat 1 ug/ml; 10% coverage.
In data set [5] the target is T1, potato lectin (Sigma). Nature of the data set: microcapsule retention; D: carboxyl capsules, EDC/Sulfo-NHS, 0.1 ug VHH/cm2; potato lectin coat 10 ug/ml; 10% coverage.
Data set [6] has as its target T1, potato lectin (Sigma). The data set is described as follows: microcapsule retention; H: amine capsules, BS3 one-step, 0.1 ug VHH/cm2; potato lectin coat 10 ug/ml; 10% coverage.
Data set [7] has as its target T1, potato lectin (Sigma). The data set is described as follows: microcapsule retention; C: carboxyl capsules, EDC/Sulfo-NHS, 1 ug VHH/cm2; potato lectin coat 100 ug/ml; 100% coverage.
The target in data set [8] is T1, potato lectin (Sigma). Nature of the data set: microcapsule retention; C: carboxyl capsules, EDC/Sulfo-NHS, 1 ug VHH/cm2; potato lectin coat 10 ug/ml; 10% coverage.
The target in data set [9] is T1, potato lectin (Sigma). Nature of the data set: microcapsule retention; K: amine capsules, BS3 two-step, 1 ug VHH/cm2; potato lectin coat 1 ug/ml; 10% coverage.
Data set [10] deals with T1, potato lectin (Sigma). Nature of the data set: microcapsule retention; H: amine capsules, BS3 one-step, 0.1 ug VHH/cm2; potato lectin coat 100 ug/ml; 10% coverage.
Data set [11] concerns the target T1, potato lectin (Sigma). The data set is described as follows: microcapsule retention; D: carboxyl capsules, EDC/Sulfo-NHS, 0.1 ug VHH/cm2; potato lectin coat 1 ug/ml; 100% coverage.
Data set [12] deals with unrelated antigens. The data set is described as follows: VHH-coupled Uvitex microcapsules retained on wells coated with unrelated antigen; 4% surface coverage.
In data set [13] the target is T1, potato lectin (Sigma). Nature of the data set: VHH-coupled Uvitex microcapsules on potato lectin-coated wells; 25-fold less microcapsules applied. On the procedure: An ELISA-like assay was performed using high bind half area microplates (Greiner Bio-One) coated with 5 μg/well potato lectin. Control wells included blank wells or wells coated with unrelated antigens. Plates were washed three times with PBS with 0.05%-TWEEN®-20 and blocked with 5% skimmed milk in PBS for 1 to 2 hours. VHH-coupled Uvitex-containing microcapsules were diluted to appropriate densities in 1% skimmed milk in PBS with 0.05%-TWEEN®-20. Five-fold serial dilution series were prepared and allowed to bind to the surface to compare binding of microcapsules coupled with monovalent or bivalent VHH. Microcapsules were added to the antigen-coated or control wells and allowed to bind for 1 hour. Unbound microcapsules were removed by washing five times with PBS with 0.05%-TWEEN®-20. The bottoms of ELISA plate wells were analyzed for bound microcapsules on a macrozoom microscope system (Nikon). Microcapsules were counted using Volocity image analysis software (Perkin Elmer). A DAPI filter was used to visualize Uvitex microcapsules.
The surface area of microcapsules with coupled bivalent VHH was 15-fold above the surface area of blank microcapsules applied at this microcapsule density while the surface area of microcapsules with monovalent VHH was only six-fold above the surface area of blank microcapsules applied at this microcapsule density. […]

Data set [14] has as its system potato leaf discs. The data set is described as follows: VHH binding at different temperatures. The arrangement: species or system potato (variety Désirée). The settings on record: 5 μg/ml in PBS; temperature range from 4° C. to 55° C. On the procedure: In order to test applicability of VHH as binders for greenhouse or field applications where binding supposedly may occur at different and sometimes even extreme temperatures, a leaf dip VHH binding experiment at different temperatures was used. Temperatures used were 4° C., room temperature, 37° C., 55° C., or 70° C. ø 8 mm potato leaf discs (variety Désirée) were cut using a puncher tool. The leaf discs were equilibrated to different temperatures by washing three times with PBS at different temperatures. Hexahistidine-tagged VHH were diluted to 5 μg/ml in PBS at different temperatures, added to the corresponding equilibrated leaf discs, and binding of VHH was allowed for 1 hour at different temperatures. After incubation with VHH, leaf discs were washed five times with PBS at room temperature. Bound VHH were detected by incubation with monoclonal mouse anti-histidine antibodies directly conjugated with Alexa-488 fluorescent dye (Abd Serotec) in PBS for 1 hour at room temperature. Unbound anti-histidine antibodies were removed by washing five times with PBS at room temperature. Leaf discs were analyzed for bound VHH with microscopy. […] Please note that leaf discs severely suffer when submerged in PBS at 70° C. for 1 hour but that binding of VHH was still detected.

Data set [15] deals with unrelated antigens. The data set is described as follows: VHH-coupled Uvitex microcapsules retained on wells coated with unrelated antigen; 100% surface coverage.

As to Control VHH, the microcapsule counts (microcapsules) is 1110 in data set [1]; 285 in data set [2]; 780 in data set [3]; 64 in data set [4]; 118 in data set [5]; 215 in [6]. In addition, the microcapsule counts (microcapsules) in [7] worked out at 297; in [8] it was 50; in [9], 215; in data set [10], 225; in data set [11], 227.

B1: VHH 3E6 (VHH)
VHH: QVQLQESGGGLVQPGGTLSLSCAASGFNVRWYGMGWFRQAPGKEREGVACISALQETTAYADSVKGRFTLSRDNPKNTLSLQMNNLQPEDTGVYYCATTDCDDSSRMTYTSYLGQGTQVTVSS
notes: also called Monovalent VHH 3E6
For the molecule B1, the figures for the surface area of bound microcapsules in data set [12] and in data set [15] were 5.01 and 69.5, respectively. For the same molecule, the “fold of surface area above blank microcapsules” value in data set [13] was 6 fold. Also, the “binding to leaf discs at different temperatures” value in data set [14] was “showed detectable binding”.
